Measured values taken from US20080274118A1 (Novartis, published 2008).

Experiments:
[1] = target: T1, human CD40, cell-surface (on human B cells, monocytes and other CD40-expressing cells) (human, UniProt P25942 20-277); assay: cell-based or functional assay
[2] = target: T1, human CD40, cell-surface (on human B …); assay: cell-based or functional assay; remark: listed apart in the source
[3] = target: T2, human CD40, soluble or recombinant (ELISA, Biacore) (human, UniProt P25942 21-193, limits assumed); assay: Biacore (method named in paragraph 140)
T2 construct: also called soluble CD40; recombinant CD40
T2 sequence (P25942 21-193 limits assumed): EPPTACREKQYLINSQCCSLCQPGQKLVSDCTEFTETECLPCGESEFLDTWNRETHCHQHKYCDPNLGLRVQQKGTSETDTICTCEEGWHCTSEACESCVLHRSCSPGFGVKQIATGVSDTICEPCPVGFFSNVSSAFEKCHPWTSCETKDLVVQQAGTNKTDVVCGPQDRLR

T1 sequence (P25942 20-277): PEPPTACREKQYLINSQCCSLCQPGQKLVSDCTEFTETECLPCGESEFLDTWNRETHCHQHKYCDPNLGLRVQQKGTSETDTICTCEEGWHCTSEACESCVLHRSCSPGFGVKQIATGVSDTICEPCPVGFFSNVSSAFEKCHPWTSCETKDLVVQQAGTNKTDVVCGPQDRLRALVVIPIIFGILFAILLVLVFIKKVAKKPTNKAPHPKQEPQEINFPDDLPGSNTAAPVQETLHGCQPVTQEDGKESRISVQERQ

B1: CD40L on formaldehyde-fixed transfected CHO cells (ligand)
chain: MIETYNQTSPRSAATGLPISMKIFMYLLTVFLITQMIGSALFAVYLHRRLDKIEDERNLHEDFVFMKTIQRCNTGERSLSLLNCEEIKSQFEGFVKDIMLNKEETKKENSFEMQKGDQNPQIAAHVISEASSKTTSVLQWAEKGYYTMSNNLVTLENGKQLTVKRQGLYYIYAQVTFCSNREASSQAPFIASLCLKSPGRFERILLRAANTHSSAKPCGQQSIHLGGVFELQPGASVFVNVTDPSQVSHGTGFTSFGLLKL
- MCP-1 secretion, monocytes, Donor 1 (folds of induction over background) [1]: 290 fold
- MIP-1beta secretion, monocytes, Donor 1 (folds of induction over background) [1]: 162 fold
- hIL6 secretion, monocytes, Donor 1 (folds of induction over background) [1]: 77.9 fold
- hIL8 secretion, monocytes, Donor 1 (folds of induction over background) [1]: 124 fold
- hIL-10 secretion, monocytes, Donor 1 (folds of induction over background) [1]: 4.2 fold
- hTNF-alpha secretion, monocytes, Donor 1 (folds of induction over background) [1]: 13.8 fold
- MCP-1 secretion, normal B cells, Donor 1 (folds of induction over background) [2]: 5.5 fold
- MCP-1 secretion, normal B cells, Donor 3 (folds of induction over background) [2]: 1.7 fold
- MIP-1beta secretion, normal B cells, Donor 1 (folds of induction over background) [2]: 2.2 fold
- MIP-1beta secretion, normal B cells, Donor 2 (folds of induction over background) [2]: 2.6 fold
- MIP-1beta secretion, normal B cells, Donor 3 (folds of induction over background) [2]: 17.8 fold
- hIL-6 secretion, normal B cells, Donor 1 (folds of induction over background) [2]: 5.7 fold
- hIL-6 secretion, normal B cells, Donor 2 (folds of induction over background) [2]: 3.8 fold
- hIL-6 secretion, normal B cells, Donor 3 (folds of induction over background) [2]: 20.5 fold
- hIL-8 secretion, normal B cells, Donor 1 (folds of induction over background) [2]: 7.7 fold
- hIL-8 secretion, normal B cells, Donor 2 (folds of induction over background) [2]: 14.7 fold
- hIL-8 secretion, normal B cells, Donor 3 (folds of induction over background) [2]: 49.3 fold
- hIL-10 secretion, normal B cells, Donor 1 (folds of induction over background) [2]: 3.6 fold
- hIL-10 secretion, normal B cells, Donor 3 (folds of induction over background) [2]: 3.6 fold
- hTNF-alpha secretion, normal B cells, Donor 1 (folds of induction over background) [2]: 3.7 fold
- hTNF-alpha secretion, normal B cells, Donor 2 (folds of induction over background) [2]: 4.8 fold
- hTNF-alpha secretion, normal B cells, Donor 3 (folds of induction over background) [2]: 22.8 fold

B2: CHIR-5.9 fully human anti-CD40 monoclonal antibody (antibody, V domains shown)
VH: EVQLVQSGAEVKKPGESLKISCKGSGYSFTSYWIGWVRQMPGKGLEWMGIIYPGDSDTRYSPSFQGQVTISADKSISTAYLQWSSLKASDTAMYYCARGTAAGRDYYYYYGMDVWGQGTTVTVSS
VL: AIVMTQPPLSSPVTLGQPASISCRSSQSLVHSDGNTYLNWLQQRPGQPPRLLIYKFFRRLSGVPDRFSGSGAGTDFTLKISRVEAEDVGVYYCMQVTQFPHTFGQGTRLEIKR
notes: also called mAb CHIR-5.9; 131.2F8.5.9
- Kd [3]: 12 nM

B3: CHIR-12.12 fully human anti-CD40 monoclonal antibody (antibody, V domains shown)
VH: QVQLVESGGGVVQPGRSLRLSCAASGFTFSSYGMHWVRQAPGKGLEWVAVISYEESNRYHADSVKGRFTISRDNSKITLYLQMNSLRTEDTAVYYCARDGGIAAPGPDYWGQGTLVTVSS
VL: DIVMTQSPLSLTVTPGEPASISCRSSQSLLYSNGYNYLDWYLQKPGQSPQVLISLGSNRASGVPDRFSGSGSGTDFTLKISRVEAEDVGVYYCMQARQTPFTFGPGTKVDIRR
notes: also called 153.8E2.D10.D6.12.12
- Kd [3]: 0.5 nM
